Test [1] has as its target IgG1 heavy chain with CH3 construct 66 (V397D) (human) [IgG part: P01857]. The experiment in a line: native MS; transfection ZR: vectors XV+XIX co-expressed.
Test [2] addresses IgG1 heavy chain with CH3 construct 67 (K360D) (human) [IgG part: P01857]. Nature of the test: native MS; transfection ZS: vectors XI+XX co-expressed.
In test [3] the target is IgG1 heavy chain with CH3 construct 1 (E356K, D399K) (human) [IgG part: P01857]. Nature of the test: SDS-PAGE of protein A-purified supernatant; construct expressed alone.
The target is the same in test [4]. Nature of the test: native MS; transfection S: vectors IV+V+VI 2:1:1; homodimer of vector IV.
Test [5] deals with IgG1 heavy chain with CH3 construct 2 (K392D, K409D) (human) [IgG part: P01857]. The experiment in a line: native MS; transfection S: vectors IV+V+VI 2:1:1; BC = vector IV with vector V.
The target is the same in test [6]. Nature of the test: native MS (peak height); transfection #11 of Table 24; CC = C (fibrinogen)/1 with C/2.
Test [7] deals with IgG1 heavy chain with CH3 construct 3 (K392D, K409D, K439D) (human) [IgG part: P01857]. Nature of the test: native MS; transfection L: vectors IV+VII+VIII 1:1:1; BC = vector IV with vector VII.
Test [8] deals with IgG1 heavy chain with CH3 construct 2 (K392D, K409D) (human) [IgG part: P01857]. Nature of the test: native MS (peak height); transfection #9 of Table 24; CD = C (fibrinogen)/1 with D (RTK2)/2.
For test [9], the target named is IgG1 heavy chain with CH3 construct 3 (K392D, K409D, K439D) (human) [IgG part: P01857]. The experiment in a line: native MS; transfection L: vectors IV+VII+VIII 1:1:1; AB = vector IV with vector VIII.
Test [10] deals with IgG1 heavy chain with CH3 construct 2 (K392D, K409D) (human) [IgG part: P01857]. Nature of the test: native MS; transfection K: vectors IV+V+VI 1:1:1; BC = vector IV with vector V (fibrinogen VH).
The target in test [11] is IgG1 heavy chain with CH3 construct 3 (K392D, K409D, K439D) (human) [IgG part: P01857]. The experiment in a line: native MS; transfection T: vectors IV+VII+VIII 2:1:1; AB = vector IV with vector VIII.
For test [12], the target named is IgG1 heavy chain with CH3 construct 2 (K392D, K409D) (human) [IgG part: P01857]. The experiment in a line: native MS; transfection S: vectors IV+V+VI 2:1:1; AB = vector IV with vector VI.
For test [13], the target named is IgG1 heavy chain with CH3 construct 3 (K392D, K409D, K439D) (human) [IgG part: P01857]. Nature of the test: native MS; transfection J: vectors IV+VII co-expressed 1:1.
The target of test [14] is IgG1 heavy chain with CH3 construct 1 (E356K, D399K) (human) [IgG part: P01857]. The experiment in a line: native MS; transfection T: vectors IV+VII+VIII 2:1:1; homodimer of vector IV.
Test [15] has the same target. The experiment in a line: native MS; transfection B: vector IV alone (thyroglobulin VH, construct 1).
The target of test [16] is IgG1 heavy chain with CH3 construct 3 (K392D, K409D, K439D) (human) [IgG part: P01857]. Nature of the test: native MS; transfection T: vectors IV+VII+VIII 2:1:1; BC = vector IV with vector VII.
In test [17] the target is IgG1 heavy chain with CH3 construct 2 (K392D, K409D) (human) [IgG part: P01857]. Nature of the test: native MS; transfection I: vectors IV+V co-expressed 1:1.
For test [18] the target is unchanged.
The target in test [19] is IgG1 heavy chain with wildtype CH3 (construct vector MV1057, wildtype IgG1 Fc) (human) [IgG part: P01857]. The experiment in a line: native MS; transfection O: vectors I+II+III co-expressed 1:1:1.
The target is the same in test [20]. Nature of the test: native MS; transfection N: vectors I+III co-expressed 1:1.
Test [21] shares this target. The experiment in a line: native MS; transfection M: vectors I+II co-expressed 1:1.
For test [22] the target is unchanged. The experiment in a line: native MS; transfection V: vectors I+II+III co-expressed 1:1:10.
Test [23] has the same target. The experiment in a line: native MS; transfection U: vectors I+III co-expressed 1:5.
The target is the same in test [24]. The experiment in a line: native MS; transfection A: vector I alone (VH MF1337, wildtype CH3).
Test [25] deals with IgG1 heavy chain with CH3 construct 63 (L351D) (human) [IgG part: P01857]. Nature of the test: native MS; transfection ZT (3:1): vectors XIII+XVI co-expressed.
Test [26] has the same target. Nature of the test: SDS-PAGE of protein A-purified supernatant; construct expressed alone.
Test [27] has the same target. The experiment in a line: native MS; transfection ZO (1:1): vectors XIII+XVI co-expressed.
For test [28] the target is unchanged. The experiment in a line: native MS; combination 7 co-expressed (A: VH MF1337, B: VH MF1122).
For test [29] the target is unchanged. The experiment in a line: native MS; combination 2 co-expressed (A: VH MF1337, B: VH MF1122).
Test [30] has the same target. Nature of the test: native MS; transfection ZV (1:3): vectors XIII+XVI co-expressed.
Test [31] shares this target. The experiment in a line: native MS; transfection ZW (1:1): vectors XIII+XVI co-expressed.
For test [32] the target is unchanged. Nature of the test: native MS; transfection ZU (1:1): vectors XIII+XVI co-expressed.
Test [33] addresses IgG1 heavy chain with CH3 construct 65 (S354D, Y349D) (human) [IgG part: P01857]. The experiment in a line: native MS; transfection ZQ: vectors XII+XVIII co-expressed.
Test [34] addresses IgG1 heavy chain with CH3 construct 5 (E356K, E357K, K439D, K370D) (human) [IgG part: P01857]. The experiment in a line: native MS; transfection O: vectors I+II+III co-expressed 1:1:1.
Test [35] has the same target. The experiment in a line: native MS; transfection N: vectors I+III co-expressed 1:1.
The target is the same in test [36]. The experiment in a line: native MS; transfection V: vectors I+II+III co-expressed 1:1:10.
For test [37] the target is unchanged. The experiment in a line: native MS; transfection U: vectors I+III co-expressed 1:5.
Test [38] shares this target. The experiment in a line: native MS; transfection H: vector III alone (VH MF1122, construct 5).
In test [39] the target is IgG1 heavy chain with CH3 construct 4 (K392D, D399K, K409D) (human) [IgG part: P01857]. The experiment in a line: native MS; transfection O: vectors I+II+III co-expressed 1:1:1.
The target is the same in test [40]. Nature of the test: native MS; transfection M: vectors I+II co-expressed 1:1.
Test [41] shares this target. Nature of the test: native MS; transfection V: vectors I+II+III co-expressed 1:1:10.
For test [42] the target is unchanged. The experiment in a line: native MS; transfection G: vector II alone (VH MF1025, construct 4).
For test [43], the target named is IgG1 heavy chain with CH3 construct 64 (T366D) (human) [IgG part: P01857]. Nature of the test: SDS-PAGE of protein A-purified supernatant; construct expressed alone.
Test [44] shares this target. The experiment in a line: native MS; transfection ZP: vectors XIV+XVII co-expressed.
Test [45] shares this target. Nature of the test: native MS; combination 15 co-expressed (A: VH MF1337, B: VH MF1122).
For test [46], the target named is IgG1 heavy chain with CH3 construct 76 (L351K, L368K) (human) [IgG part: P01857]. The test is described as above.
The target in test [47] is IgG1 heavy chain with CH3 construct 64 (T366D) (human) [IgG part: P01857]. Nature of the test: native MS; combination 16 co-expressed (A: VH MF1337, B: VH MF1122).
The target of test [48] is IgG1 heavy chain with CH3 construct 77 (L351R) (human) [IgG part: P01857]. Described as above.

Nine substances from patent publication US20150139996A1 can be followed below.

Read-outs that look alike come from different tables or passages of the source.

Turning to “IgG1 heavy chain with CH3 construct 66 (V397D) (from UniProt P01857-1)”, the CC found (%) in [1] worked out at 11%.
Consider “IgG1 heavy chain with CH3 construct 67 (K360D) (from UniProt P01857-1)”, for which the CC found (%) in test [2] was found to be 15%.
As for “IgG1 heavy chain with CH3 construct 1 (E356K, D399K) (from UniProt P01857-1)”, in [3], the % IgG worked out at 64.2%. In [3], this substance had a % half molecule of 35.8%. Besides, the Other molecules (%) in test [4] and in test [14] was 3% each time. In addition, the Bispecific found (%) in test [5] stood at 42%; in test [7], 16%; in [9] it was 60%; in test [10], 38%; in test [11], 39%; in test [12] it was 55%. Also, the Bispecific found (%) in [13] was 96%; in test [16] it was 58%; in test [17], 96%; in test [18], 47%. Moreover, the percent of species in the mixture in test [6] was 61%; in [8], 67%. This substance also showed a Full IgG found (%) in test [15] of 60%. Besides, the Half molecules found (%) in test [15] was determined as 40%.
In the case of “IgG1 heavy chain with wildtype CH3 (construct vector MV1057, wildtype IgG1 Fc) (from UniProt P01857-1)”, the AA found (%) was found to be 66% in test [19]; 88% in test [20]; 51% in test [21]; 8% in test [22]; 47% in test [23]; 100% in test [24].
As for “IgG1 heavy chain with CH3 construct 63 (L351D) (from UniProt P01857-1)”, the CC found (%) is 16% in test [25]; 7% in test [27]; 23% in test [30]; 2.4% in [31]; 10% in [32]. Further, the % IgG in [26] is 89.8%. The % half molecule in test [26] is 10.2%. Further, the % BB found is 12% in test [28] and 3% in test [29].
In turn, “IgG1 heavy chain with CH3 construct 65 (S354D, Y349D) (from UniProt P01857-1)” came in with a CC found (%) in test [33] of 33%.
On to “IgG1 heavy chain with CH3 construct 5 (E356K, E357K, K439D, K370D) (from UniProt P01857-1)”, for which the CC found (%) in [34] amounted to 30%; in test [35] it was 9%; in test [36], 9%; in test [37] it was 48%; in test [38], 100%.
Take “IgG1 heavy chain with CH3 construct 4 (K392D, D399K, K409D) (from UniProt P01857-1)”: the BB found (%) was found to be 4% in test [39], 45% in [40], 81% in test [41] and 100% in test [42].
Substance “IgG1 heavy chain with CH3 construct 64 (T366D) (from UniProt P01857-1)” gave a % IgG in [43] of 89.6%. For the same substance, the % half molecule in test [43] was 10.4%. This substance returned a CC found (%) in [44] of 13%. For the same substance, the results for the % AA found in [45] and in [47] were 3% and 30%, respectively. Besides, the % AB found in test [46] came out at 92%; in [48], 69%.
